Experimental data as given in patent US20210292397A1 (LA TROBE UNIVERSITY, published 2021).

B4: Ag43a passenger domain (Ag43a^α) from UPEC strain CFT073 (other)
chain: ADIVVHPGETVNGGTLVNHDNQFVSGTANGVTVSTGLELGPDSDENTGGQWIKAGGTGRNTTVTANGRQIVQAGGTASDTVIRDGGGQSLNGLAVNTTLDNRGEQWVHGGGKAAGTIINQDGYQTIKHGGLATGTIVNTGAEGGPESENVSSGQMVGGTAESTTINKNGRQVIWSSGMARDTLIYAGGDQTVHGEAHNTRLEGGNQYVHNGGTATETLINRDGWQVIKEGGTAAHTTINQKGKLQVNAGGKASDVTQNTGGALVTSTAATVTGTNRLGAFSVVAGKADNVVLENGGRLDVLSGHTATNTRVDDGGTLDIRNGGAATTVSMGNGGVLLADSGAAVSGTRSDGKAFSIGGGQADALMLEKGSSFTLNAGDTATDTTVNGGLFTARGGTLAGTTTLNNGAILTLSGKTVNNDTLTIREGDALLQGGSLTGNGSVEKSGSGTLTVSNTTLTQKAVNLNEGTLTLNDSTVTTDVIAQRGTALKLTGSTVLNGAID
notes: also called Ag43^α; α^43a

Key:
[1] = molecular target: the molecule itself; assay: crystal structure (FIG. 12A)
[2] = molecular target: the molecule itself; assay: crystal structure (FIG. 12B)
[3] = molecular target: the molecule itself; assay: crystal structure (FIG. 12C)
[4] = molecular target: the molecule itself; assay: crystal structure (FIG. 1B)
[5] = molecular target: the molecule itself; assay: crystal structure (FIG. 12D)
human fibronectin = human fibronectin (human, UniProt P02751 32-2477)
human fibronectin, sequence (P02751 32-2477 limits assumed): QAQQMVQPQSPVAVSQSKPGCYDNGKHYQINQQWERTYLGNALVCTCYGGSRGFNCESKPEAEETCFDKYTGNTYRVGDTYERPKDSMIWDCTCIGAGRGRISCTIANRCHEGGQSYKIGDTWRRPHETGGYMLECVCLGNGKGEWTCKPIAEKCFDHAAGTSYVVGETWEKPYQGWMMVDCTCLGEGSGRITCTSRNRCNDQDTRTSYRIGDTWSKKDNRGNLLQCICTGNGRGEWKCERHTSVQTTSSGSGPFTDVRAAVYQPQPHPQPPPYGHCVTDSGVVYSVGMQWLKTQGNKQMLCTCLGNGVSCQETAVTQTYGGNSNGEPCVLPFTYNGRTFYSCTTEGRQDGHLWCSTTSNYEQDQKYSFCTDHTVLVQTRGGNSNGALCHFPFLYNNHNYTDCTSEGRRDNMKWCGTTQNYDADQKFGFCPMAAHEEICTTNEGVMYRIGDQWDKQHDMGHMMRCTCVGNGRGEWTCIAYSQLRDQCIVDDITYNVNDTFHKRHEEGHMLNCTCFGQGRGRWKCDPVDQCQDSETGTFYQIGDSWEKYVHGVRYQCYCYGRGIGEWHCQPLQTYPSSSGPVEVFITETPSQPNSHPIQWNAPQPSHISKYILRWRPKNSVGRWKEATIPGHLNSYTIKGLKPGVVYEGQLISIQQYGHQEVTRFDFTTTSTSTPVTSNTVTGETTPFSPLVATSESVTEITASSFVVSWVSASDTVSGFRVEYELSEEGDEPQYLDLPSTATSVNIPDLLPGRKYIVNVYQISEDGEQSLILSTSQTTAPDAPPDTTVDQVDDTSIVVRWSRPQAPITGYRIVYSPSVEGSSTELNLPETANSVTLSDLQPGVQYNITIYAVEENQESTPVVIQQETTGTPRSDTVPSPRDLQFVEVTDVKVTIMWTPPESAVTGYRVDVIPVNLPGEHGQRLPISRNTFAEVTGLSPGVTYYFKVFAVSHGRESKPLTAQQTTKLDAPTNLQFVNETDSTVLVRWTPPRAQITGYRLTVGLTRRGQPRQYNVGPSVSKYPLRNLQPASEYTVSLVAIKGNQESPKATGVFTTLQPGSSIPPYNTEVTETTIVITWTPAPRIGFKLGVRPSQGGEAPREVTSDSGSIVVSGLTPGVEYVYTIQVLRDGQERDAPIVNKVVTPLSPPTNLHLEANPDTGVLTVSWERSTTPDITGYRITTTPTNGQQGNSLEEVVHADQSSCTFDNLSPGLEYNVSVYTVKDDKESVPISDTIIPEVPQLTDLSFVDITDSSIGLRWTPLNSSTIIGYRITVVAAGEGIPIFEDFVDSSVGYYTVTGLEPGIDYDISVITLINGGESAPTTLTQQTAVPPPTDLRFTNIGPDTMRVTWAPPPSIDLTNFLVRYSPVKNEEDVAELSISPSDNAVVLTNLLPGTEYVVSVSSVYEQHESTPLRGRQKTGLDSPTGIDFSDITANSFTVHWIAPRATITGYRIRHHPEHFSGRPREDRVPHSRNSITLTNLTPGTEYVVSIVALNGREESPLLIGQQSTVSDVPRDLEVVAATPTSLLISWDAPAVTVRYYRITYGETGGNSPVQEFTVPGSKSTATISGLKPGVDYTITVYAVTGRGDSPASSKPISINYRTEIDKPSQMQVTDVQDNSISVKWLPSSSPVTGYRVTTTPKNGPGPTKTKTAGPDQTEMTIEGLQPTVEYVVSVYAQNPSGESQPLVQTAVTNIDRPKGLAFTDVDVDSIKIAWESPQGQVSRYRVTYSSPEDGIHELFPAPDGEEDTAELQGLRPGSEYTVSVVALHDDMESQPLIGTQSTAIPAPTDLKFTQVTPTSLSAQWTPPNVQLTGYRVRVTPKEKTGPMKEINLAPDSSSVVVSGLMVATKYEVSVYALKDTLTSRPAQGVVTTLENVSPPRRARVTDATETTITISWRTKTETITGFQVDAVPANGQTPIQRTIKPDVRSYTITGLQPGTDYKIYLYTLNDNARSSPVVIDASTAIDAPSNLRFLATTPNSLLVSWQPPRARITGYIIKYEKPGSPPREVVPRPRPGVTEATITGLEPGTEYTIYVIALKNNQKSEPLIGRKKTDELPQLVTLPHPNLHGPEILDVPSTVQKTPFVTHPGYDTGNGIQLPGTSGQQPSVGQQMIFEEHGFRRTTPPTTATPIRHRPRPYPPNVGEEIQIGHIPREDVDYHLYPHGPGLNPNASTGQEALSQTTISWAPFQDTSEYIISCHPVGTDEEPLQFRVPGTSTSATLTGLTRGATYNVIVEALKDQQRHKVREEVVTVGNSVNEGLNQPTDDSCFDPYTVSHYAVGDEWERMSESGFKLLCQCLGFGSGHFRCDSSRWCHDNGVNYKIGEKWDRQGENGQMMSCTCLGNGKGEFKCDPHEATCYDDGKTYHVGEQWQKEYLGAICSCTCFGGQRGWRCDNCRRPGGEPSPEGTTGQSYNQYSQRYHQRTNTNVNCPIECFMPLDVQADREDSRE

Fibrinogen = molecular target: T1, Fibrinogen; assay: ELISA, absorbance at 405 nm, n=9, PBS as control
T1 construct: also called human fibrinogen
T1 alpha: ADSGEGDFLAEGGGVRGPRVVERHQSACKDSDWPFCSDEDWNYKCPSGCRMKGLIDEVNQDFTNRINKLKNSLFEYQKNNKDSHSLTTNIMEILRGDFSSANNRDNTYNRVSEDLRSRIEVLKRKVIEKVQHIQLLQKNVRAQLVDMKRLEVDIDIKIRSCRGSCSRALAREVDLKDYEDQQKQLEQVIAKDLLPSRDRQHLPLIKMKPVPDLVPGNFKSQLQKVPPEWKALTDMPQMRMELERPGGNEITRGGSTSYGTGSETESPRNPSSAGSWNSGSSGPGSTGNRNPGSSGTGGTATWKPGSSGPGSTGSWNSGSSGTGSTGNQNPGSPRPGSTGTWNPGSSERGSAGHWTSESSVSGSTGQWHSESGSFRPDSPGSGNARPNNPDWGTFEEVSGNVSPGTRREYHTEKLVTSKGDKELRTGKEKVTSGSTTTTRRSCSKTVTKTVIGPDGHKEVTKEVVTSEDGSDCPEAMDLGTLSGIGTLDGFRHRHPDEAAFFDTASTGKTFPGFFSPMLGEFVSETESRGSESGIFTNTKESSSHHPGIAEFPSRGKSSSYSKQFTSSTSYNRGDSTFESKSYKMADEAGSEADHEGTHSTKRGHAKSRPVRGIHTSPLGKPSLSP
T1 beta: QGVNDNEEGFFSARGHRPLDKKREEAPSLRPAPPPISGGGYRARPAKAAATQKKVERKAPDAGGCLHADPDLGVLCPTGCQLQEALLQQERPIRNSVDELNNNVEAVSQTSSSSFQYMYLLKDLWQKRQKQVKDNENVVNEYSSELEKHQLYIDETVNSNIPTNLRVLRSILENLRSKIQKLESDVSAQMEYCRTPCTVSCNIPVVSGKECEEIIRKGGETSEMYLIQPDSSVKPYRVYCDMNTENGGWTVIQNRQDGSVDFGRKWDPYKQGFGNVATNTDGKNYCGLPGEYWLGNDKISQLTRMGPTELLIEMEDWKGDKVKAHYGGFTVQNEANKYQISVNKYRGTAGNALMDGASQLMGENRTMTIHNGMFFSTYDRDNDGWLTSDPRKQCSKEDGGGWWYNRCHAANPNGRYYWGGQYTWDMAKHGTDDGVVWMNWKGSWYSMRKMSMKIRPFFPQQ
T1 gamma: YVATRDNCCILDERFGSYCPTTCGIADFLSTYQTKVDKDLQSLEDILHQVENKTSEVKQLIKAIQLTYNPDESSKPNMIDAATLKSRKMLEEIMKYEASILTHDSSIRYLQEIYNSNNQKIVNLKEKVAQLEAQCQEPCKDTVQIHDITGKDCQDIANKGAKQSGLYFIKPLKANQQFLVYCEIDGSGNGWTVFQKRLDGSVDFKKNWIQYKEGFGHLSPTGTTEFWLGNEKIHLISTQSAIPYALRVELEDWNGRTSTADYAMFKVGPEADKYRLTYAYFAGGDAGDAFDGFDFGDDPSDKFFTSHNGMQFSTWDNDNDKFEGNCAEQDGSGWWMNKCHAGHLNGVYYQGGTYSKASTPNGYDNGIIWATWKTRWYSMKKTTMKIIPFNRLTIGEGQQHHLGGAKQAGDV

[6] = molecular target: B4

B1: Ag43 passenger domain (Ag43^α) from E. coli strain EDL933 (other)
chain: ADKVVQAGETVNDGTLTNHDNQIVFGTANGMTISTGLELGPDSEENTGGQWIQNGGIAGNTTVTTNGRQVVLEGGTASDTVIRDGGGQSLNGLAVNTTLNNRGEQWVHEGGVATGTIINRDGYQSVKSGGLATGTIINTGAEGGPDSDNSYTGQKVQGTAESTTINKNGRQIILFSGLARDTLIYAGGDQSVHGRALNTTLNGGYQYVHRDGLALNTVINEGGWQVVKAGGAAGNTTINQNGELRVHAGGEATAVTQNTGGALVTSTAATVIGTNRLGNFTVENGKADGVVLESGGRLDVLESHSAQNTLVDDGGTLAVSAGGKATSVTITSGGALIADSGATVEGTNASGKFSIDGTSGQASGLLLENGGSFTVNAGGQAGNTTVGHRGTLTLAAGGSLSGRTQLSKGASMVLNGDVVSTGDIVNAGEIRFDNQTTPNAALSRAVAKSNSPVTFHKLTTTNLTGQGGTINMRVRLDGSNASDQLVINGGQATGKTWLAFTNVGNSNLGVATTGQGIRVVDAQNGATTEEGAFALSRPLQAGAFNYTLNRDSDE
**Q.** Does B1 bind [1]?
**A.** binds

B2: Ag43 passenger domain (Ag43^α) from UPEC strain UTI189 (other)
chain: ADTVVQAGETVNGGTLTNHDNQIVLGTANGMTISTGLEYGPDNEANTGGQWIQNGGIANNTTVTGGGLQRVNAGGSVSDTVISAGGGQSLQGQAVNTTLNGGEQWVHEGGIATGTVINEKGWQAVKSGAMATDTVVNTGAEGGPDAENGDTGQTVYGDAVRTTINKNGRQIVAAEGTANTTVVYAGGDQTVHGHALDTTLNGGYQYVHNGGTASDTVVNSDGWQIIKEGGLADFTTVNQKGKLQVNAGGTATNVTLTQGGALVTSTAATVTGSNRLGNFTVENGNADGVVLESGGRLDVLEGHSAWKTLVDDGGTLAVSAGGKATDVTMTSGGALIADSGATVEGTNASGKFSIDGISGQASGLLLENGGSFTVNAGGLASNTTVGHRGTLTLAAGGSLSGRTQLSKGASMVLNGDVVSTGDIVNAGEIRFDNQTTPDAALSRAVAKGDSPVTFHKLTTSNLTGQGGTINMRVRLDGSNASDQLVINGGQATGKTWLAFTNVGNSNLGVATSGQGIRVVDAQNGATTEEGAFALSRPLQAGAFNYTLNRDSDE
**Q.** Does B2 bind [2]?
**A.** binds

B3: Ag43b passenger domain (Ag43b^α) from uropathogenic E. coli strain CFT073 (other)
chain: ADSVVPAGETVNGGTLINHDRQFVSGTADGMTVSTGLELGADSDNNTGGQQIARGGTARNTRVTANGLQDVMAGGSTSDTVISTGGGQNLRGKASGTVLNGGDQWIHAGGRASGTVINQDGYQTIKHGGLVTGTIVNTGAEGGPDSENVSTGQMVGGIAESTTINKNGRQVIWSSGIARDTLIYTGGDQTVHGEAHNTRLEGGNQYVHKYGLALNTVINEGGWQVVKAGGTAGNTTINQNGELRVHAGGEASDVTQNTGGALVTSTAATVTGTNRLGAFSVVEGKADNVVLENGGRLDVLSGHTATRTLVDDGGTLDVRNGGTATAVSMGNGGVLLADSGAAVSGTRSDGTAFRIGGGQADALMLEKGSSFTLNAGDTATDTTVNGGLFTARGGSLAGTTTLNNGATFTLAGKTVNNDTLTIREGDALLQGGALTGNGRVEKSGSGTLTVSNTTLTQKAVNLNEGTLTLNDSTVTTDIIAHRGTALKLTGSTVLNGAIDPTNVTLTSGATWNIPDNATVQSVVDDLSHAGQIHFTSARTGKFVPTTLQVKNLNGQNGTISLRVRPDMAQNNADRLVIDGGRATGKTILNLVNAGNSGTGLATTGKGIQVVEAINGATTEEGAFVQGNMLQAGAFNYTLNRDSDESWYLRSEE
notes: also called Ag43bCFT073^α
**Q.** Does B3 bind [3]?
**A.** binds

**Q.** Does B4 bind [4]?
**A.** binds

B5: TibA passenger domain (TibA^α) from the enterotoxigenic E. coli strain H10407 (other)
chain: YDNQTIGRGETSKSMHLSAGDTAKNTTINSGGKQYVSSGGSATSTTINIGGVQHVSSGGSATSSTINSGGHQHVSSGGSATNTTVNNGGRQTVFSGGSAMGTIINSGGDQYVISGGSATSASVTSGARQFVSSGGIVKATSVNSGGRQYVRDGGSATDTVLNNTGRQFVSSGGSAAKTTINSGGGMYLYGGSATGTSIYNGGRQYVSSGGSATNTTVYSGGRQHVYIDGNVTETTITSGGMLQVEAGGSASKVIQNSGGAVITNTSAAVSGTNDNGSFSIAGGSAVNMLLENGGYLTVFDGHQASDTMVGSDGTLDVRSGGVLYGTTTLTDKGALVGDVVTNEGNLYYLNNSTATFTGTLTGTGTLTQEGGNTRFSGLLSQDGGIFLQSGGAMTMDALQAKANVTTQSGTTLTLDNGTILTGNVAGDSTGAGDMAVKGASVWHLDGDSTVGALTLDNGTVDFRPSTTTRMTPAFQAVSLALGSLSGSGTFQMNTDIASHTGDMLNVAGNASGNFVLDIKNTGLEPVSAGAPLQVVQTGGGDAAFTLKGGKVDAGTWEYGLSKENTNWYLKADT
**Q.** Does B5 bind [5]?
**A.** binds

B6: UpaB α-domain (α^UpaB) from UPEC strain CFT073 (other)
chain: TDSTVSTDPVTLNTEKTTLDQDVVINGDNKITAVTIETSDSDKDLNVTFGGHDITAASTVNQDFVEGVKVSGNKNVVINATDSTITAQGEGTYVRTAMVIDSTGDVVVNGGNFVAKNEKGSATGISLEATTGNNLTLNGTTINAQGNKSYSNGSTAIFAQKGNLLQGFDGDATDNITLADSNIINGGIETIVTAGNKTGIHTVNLNIKDGSVIGAANNKQTIYASASAQGAGSATQNLNLSVADSTIYSDVLALSESENSASTTTNVNMNVARSYWEGNAYTFNSGDKAGSDLDINLSDSSVWKGKVSGAGDASVSLQNGSVWNVTGSSTVDALAVKDSTVNITKATVNTGTFASQNGTLIVDASSENTLDISGKASGDLRVYSAGSLDLINEQTAFISTGKDSTLKATGTTEGGLYQYDLTQGADGNFYFVKNTHKASNASSVIQAMAAAPANVANLQADTL
notes: also called α^UPaB (native)
**Q.** How did the Kd (human fibronectin) turn out when B6 was run?
**A.** 45.2 µM

**Q.** Does B6 bind (Fibrinogen)?
**A.** no binding

B7: Fab10C12 (Fab, V domains shown)
VH: QVQLQQPGTELVKPGASVKLSCKASGYTFTNYWMHWVKQRPGQGLEWIGNIGPSSGNTNYNENFKTKATLTVDKSSSTAYMQLSSLTSEDSAVYFCARWGSIRAMDYWGQGTSVTVSS
VL: SIVMTQTPKFLFVSVGDRVTITCKASQSVNNDVAWYQQKPGQSPKLLIYFASNRYTGVPDRFTGSGYGTDFTFTINTVQAEDLAVYFCQQDYSSPQTFGGGTKLEVTR
**Q.** Which Kd [6] does the source give for B7 here?
**A.** 0.00728 µM
